# Reference: patent US20200048328A1 (Bristol-Myers Squibb, published 2020)
# Where a chain is given by its changes, count along the chain named.
# B1: 5963_D01.PS5-2 (designed binder)
# chain: MGVSDVPRDLEVVCATPTSLLISWDAPAVTVRYYRITYGREVQKYSDLGPLYIYQEFTVPGSKSTATISGLKPGVDYTITVYAVTGSGESPASSKPISINYRTPHHHHHH
# B2: 5963_F03.PS5-2 (designed binder)
# chain: B1 chain with C14A, A28C
# B3: 5963_E02.PS5-2 (designed binder)
# chain: B1 chain with C14A, T65C
# B4: 5963_E01.PS5-2 (designed binder)
# chain: B1 chain with C14A, T67C
# B5: 5916_E03.PS5-2 (designed binder)
# chain: MGVSDVPRDLEVVAATPTSLLISWDAPAVTVRYYRITYGREVQKYSDLGPLYIYQEFTVPGSKSTATISGLKPGVDYTITVYAVTGSGESPASSKPISINYRTPCHHHHHH
# B6: 5916_A04.PS5-2 (designed binder)
# chain: MGVSDVPRDLEVVAATPTSLLISWDAPAVTVRYYRITYGREVQKYSDLGPLYIYQEFTVPGSKSTATISGLKPGVDYTITVYAVTGSGESPASSKPISINYRTPEDEDGCHHHHHH
# B7: PCSK9-PKE2 tandem 4472_F08 (designed binder)
# PCSK9 domain: MGVSDVPRDLEVVAATPTSLLISWDAPAEGYGYYRITYGETGGNSPVQEFTVPVSKGTATISGLKPGVDYTITVYAVEFDFPGAGYYHRPISINYRTE
# PKE2 domain: GVSDVPRDLEVVAATPTSLLISWDAPAVTVRYYRITYGREVQKYSDLGPLYIYQEFTVPGSKSTATISGLKPGVDYTITVYAVTGSGESPASSKPISINYRTEHHHHHH
# modifications: The real molecule is ONE polypeptide: PCSK9 domain, undisclosed linker F, PKE2 domain. It is given here as two chains because the linker letters are unknown.
# notes: not shown: The inter-domain linker
# B8: PCSK9-PKE2 tandem 4472_A04 (designed binder)
# PCSK9 domain: B7 PCSK9 domain
# PKE2 domain: B7 PKE2 domain
# notes: not shown: The inter-domain linker; In the real molecule the two parts below are one polypeptide joined by this linker
# B9: PCSK9-PKE2 tandem 4472_E06 (designed binder)
# PCSK9 domain: B7 PCSK9 domain
# PKE2 domain: B7 PKE2 domain
# modifications: The real molecule is ONE polypeptide: PCSK9 domain, undisclosed linker I (a code letter), PKE2 domain. It is given here as two chains because the linker letters are unknown.
# notes: also called 4427_E06; not shown: The inter-domain linker
# B10: PCSK9-PKE2 tandem 4472_D06 (designed binder)
# PCSK9 domain: B7 PCSK9 domain
# PKE2 domain: B7 PKE2 domain
# notes: as for B8
# B11: 5963_A02.PS5-2 (designed binder)
# chain: MGCSTSGVSDVPRDLEVVAATPTSLLISWDAPAVTVRYYRITYGREVQKYSDLGPLYIYQEFTVPGSKSTATISGLKPGVDYTITVYAVTGSGESPASSKPISINYRTPHHHHHH
# Assays:
# rhesus serum albumin [1] = biological target: T1, rhesus serum albumin (rhesus, UniProt Q28522 17-600); experiment: SPR, albumin immobilized, Adnectin 250 nM
# T1 construct: also called RhSA; Rh-SA
# human serum albumin [2] = biological target: T2, human serum albumin (human, UniProt P02768 25-609); experiment: SPR, albumin immobilized, Adnectin 250 nM
# T2 construct: immobilized on chips or coated on plates elsewhere; also called HSA; HuSA
# mouse serum albumin [3] = biological target: T3, mouse serum albumin (mouse, UniProt P07724 25-608); experiment: SPR, albumin immobilized, Adnectin 250 nM
# T3 construct: also called MSA; MuSA
# rat serum albumin = biological target: T4, rat serum albumin (rat, UniProt P02770 25-608); experiment: SPR, albumin immobilized, Adnectin 250 nM
# T4 construct: also called Rat SA; RSA
# human PCSK9 [4] = biological target: T5, human PCSK9 (human, UniProt Q8NBP7 31-692); experiment: BLI (Octet), biotinylated PCSK9 on tips, no HSA
# T5 construct: also called hPCSK9; huPCSK9
# human PCSK9 [5] = biological target: T5, human PCSK9; experiment: PCSK9:LDLR FRET, competition
# rhesus serum albumin [6] = biological target: T1, rhesus serum albumin; experiment: SPR, albumin immobilized, acetate pH 7.4
# human serum albumin [7] = biological target: T2, human serum albumin; experiment: SPR, albumin immobilized, acetate pH 7.4
# mouse serum albumin [8] = biological target: T3, mouse serum albumin; experiment: SPR, albumin immobilized, acetate pH 7.4
# human PCSK9 [9] = biological target: T5, human PCSK9; experiment: BLI (Octet), biotinylated PCSK9 on tips, tandem in complex with excess HSA
# rhesus serum albumin [10] = biological target: T1, rhesus serum albumin; experiment: SPR, albumin immobilized, acetate pH 5.5
# human serum albumin [11] = biological target: T2, human serum albumin; experiment: SPR, albumin immobilized, acetate pH 5.5
# mouse serum albumin [12] = biological target: T3, mouse serum albumin; experiment: SPR, albumin immobilized, acetate pH 5.5
# rhesus serum albumin [13] = biological target: T1, rhesus serum albumin; experiment: direct binding ELISA, albumin coated
# human serum albumin [14] = biological target: T2, human serum albumin; experiment: direct binding ELISA, albumin coated
# mouse serum albumin [15] = biological target: T3, mouse serum albumin; experiment: direct binding ELISA, albumin coated
# human PCSK9 [16] = biological target: T5, human PCSK9; experiment: PCSK9:EGFA FRET 2, competition
# human PCSK9 [17] = biological target: T5, human PCSK9; experiment: PCSK9:EGFA FRET 1, competition
# rhesus serum albumin [18] = biological target: T1, rhesus serum albumin; experiment: SPR, albumin immobilized;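 further: biacore SPR with human, rhesus or mouse serum albumin amine-coupled to the chip (about 1200 RU), 3 min association, 6-10 min dissociation, reference-subtracted traces fitted with a 1:1 model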
# human serum albumin [19] = biological target: T2, human serum albumin; experiment: SPR, albumin immobilized;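 further: biacore SPR with human, rhesus or mouse serum albumin amine-coupled to the chip (about 1200 RU), 3 min association, 6-10 min dissociation, reference-subtracted traces fitted with a 1:1 model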
# mouse serum albumin [20] = biological target: T3, mouse serum albumin; experiment: SPR, albumin immobilized;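 further: biacore SPR with human, rhesus or mouse serum albumin amine-coupled to the chip (about 1200 RU), 3 min association, 6-10 min dissociation, reference-subtracted traces fitted with a 1:1 model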
# rhesus serum albumin [21] = biological target: T1, rhesus serum albumin; experiment: SPR, albumin immobilized, HBSP pH 7.4
# human serum albumin [22] = biological target: T2, human serum albumin; experiment: SPR, albumin immobilized, HBSP pH 7.4
# mouse serum albumin [23] = biological target: T3, mouse serum albumin; experiment: SPR, albumin immobilized, HBSP pH 7.4
# rhesus serum albumin [24] = biological target: T1, rhesus serum albumin; experiment: SPR, albumin immobilized, acetate pH 7.4; remark: listed apart in the source
# human serum albumin [25] = biological target: T2, human serum albumin; experiment: SPR, albumin immobilized, acetate pH 7.4; remark: listed apart in the source
# mouse serum albumin [26] = biological target: T3, mouse serum albumin; experiment: SPR, albumin immobilized, acetate pH 7.4; remark: listed apart in the source
# rhesus serum albumin [27] = biological target: T1, rhesus serum albumin; experiment: SPR, albumin immobilized, acetate pH 5.5; remark: listed apart in the source
# human serum albumin [28] = biological target: T2, human serum albumin; experiment: SPR, albumin immobilized, acetate pH 5.5; remark: listed apart in the source
# mouse serum albumin [29] = biological target: T3, mouse serum albumin; experiment: SPR, albumin immobilized, acetate pH 5.5; remark: listed apart in the source
# rhesus serum albumin [30] = biological target: T1, rhesus serum albumin; experiment: SPR, albumin immobilized, HBSP pH 7.4; remark: listed apart in the source
# human serum albumin [31] = biological target: T2, human serum albumin; experiment: SPR, albumin immobilized, HBSP pH 7.4; remark: listed apart in the source
# mouse serum albumin [32] = biological target: T3, mouse serum albumin; experiment: SPR, albumin immobilized, HBSP pH 7.4; remark: listed apart in the source
binder,measurement,setting,value
B1,koff,rhesus serum albumin [1],0.000313 s⁻¹
same,koff,human serum albumin [2],0.000247 s⁻¹
same,koff,mouse serum albumin [3],0.000499 s⁻¹
same,koff,rat serum albumin,0.000858 s⁻¹
B2,koff,rhesus serum albumin [1],0.000312 s⁻¹
same,koff,human serum albumin [2],0.000251 s⁻¹
same,koff,mouse serum albumin [3],0.000504 s⁻¹
same,koff,rat serum albumin,0.000825 s⁻¹
B3,koff,rhesus serum albumin [1],0.000284 s⁻¹
same,koff,human serum albumin [2],0.000228 s⁻¹
same,koff,mouse serum albumin [3],0.000461 s⁻¹
same,koff,rat serum albumin,0.00076 s⁻¹
B4,koff,rhesus serum albumin [1],0.000313 s⁻¹
same,koff,human serum albumin [2],0.00025 s⁻¹
same,koff,mouse serum albumin [3],0.000507 s⁻¹
same,koff,rat serum albumin,0.000848 s⁻¹
B5,koff,rhesus serum albumin [1],0.000272 s⁻¹
same,koff,human serum albumin [2],0.000211 s⁻¹
same,koff,mouse serum albumin [3],0.000452 s⁻¹
same,koff,rat serum albumin,0.000786 s⁻¹
B6,koff,rhesus serum albumin [1],0.000172 s⁻¹
same,koff,human serum albumin [2],0.000148 s⁻¹
same,koff,mouse serum albumin [3],0.000307 s⁻¹
same,koff,rat serum albumin,0.000547 s⁻¹
B7,Kd,human PCSK9 [4],0.404 nM
same,koff,human PCSK9 [4],0.000118 s⁻¹
same,kon,human PCSK9 [4],289000 M⁻¹ s⁻¹
same,IC50,human PCSK9 [5],2.5 nM
same,Kd,rhesus serum albumin [6],75.4 nM
same,koff,rhesus serum albumin [6],0.000405 s⁻¹
same,kon,rhesus serum albumin [6],5380 M⁻¹ s⁻¹
same,Kd,human serum albumin [7],83.9 nM
same,koff,human serum albumin [7],0.000387 s⁻¹
same,kon,human serum albumin [7],4610 M⁻¹ s⁻¹
same,Kd,mouse serum albumin [8],35 nM
same,koff,mouse serum albumin [8],0.000407 s⁻¹
same,kon,mouse serum albumin [8],11600 M⁻¹ s⁻¹
same,Kd,human PCSK9 [9],0.902 nM
same,koff,human PCSK9 [9],0.000148 s⁻¹
same,kon,human PCSK9 [9],161000 M⁻¹ s⁻¹
same,Kd,rhesus serum albumin [10],110 nM
same,koff,rhesus serum albumin [10],0.000818 s⁻¹
same,kon,rhesus serum albumin [10],7400 M⁻¹ s⁻¹
same,Kd,human serum albumin [11],43.9 nM
same,koff,human serum albumin [11],0.000489 s⁻¹
same,kon,human serum albumin [11],11100 M⁻¹ s⁻¹
same,Kd,mouse serum albumin [12],137 nM
same,koff,mouse serum albumin [12],0.0015 s⁻¹
same,kon,mouse serum albumin [12],11000 M⁻¹ s⁻¹
same,EC50,rhesus serum albumin [13],35.2 nM
same,EC50,human serum albumin [14],55.4 nM
same,EC50,mouse serum albumin [15],7.3 nM
same,IC50,human PCSK9 [16],5.88 nM
same,IC50,human PCSK9 [17],7.88 nM
same,Kd,rhesus serum albumin [18],68.7 nM
same,koff,rhesus serum albumin [18],0.000367 s⁻¹
same,kon,rhesus serum albumin [18],5340 M⁻¹ s⁻¹
same,Kd,human serum albumin [19],67.1 nM
same,koff,human serum albumin [19],0.000324 s⁻¹
same,kon,human serum albumin [19],4820 M⁻¹ s⁻¹
same,Kd,mouse serum albumin [20],25.5 nM
same,koff,mouse serum albumin [20],0.000344 s⁻¹
same,kon,mouse serum albumin [20],13500 M⁻¹ s⁻¹
same,Kd,rhesus serum albumin [21],71.7 nM
same,koff,rhesus serum albumin [21],0.000346 s⁻¹
same,kon,rhesus serum albumin [21],4820 M⁻¹ s⁻¹
same,Kd,human serum albumin [22],83.8 nM
same,koff,human serum albumin [22],0.000301 s⁻¹
same,kon,human serum albumin [22],3590 M⁻¹ s⁻¹
same,Kd,mouse serum albumin [23],26.3 nM
same,koff,mouse serum albumin [23],0.000359 s⁻¹
same,kon,mouse serum albumin [23],13700 M⁻¹ s⁻¹
B8,IC50,human PCSK9 [5],1.1 nM
same,EC50,rhesus serum albumin [13],84 nM
same,EC50,human serum albumin [14],144 nM
same,EC50,mouse serum albumin [15],16.7 nM
same,IC50,human PCSK9 [16],4.44 nM
same,IC50,human PCSK9 [17],5.14 nM
B9,Kd,human PCSK9 [4],0.724 nM
same,koff,human PCSK9 [4],0.0002 s⁻¹
same,kon,human PCSK9 [4],281000 M⁻¹ s⁻¹
same,IC50,human PCSK9 [5],1.6 nM
same,Kd,human PCSK9 [9],1 nM
same,koff,human PCSK9 [9],0.000209 s⁻¹
same,kon,human PCSK9 [9],207000 M⁻¹ s⁻¹
same,EC50,rhesus serum albumin [13],40.1 nM
same,EC50,human serum albumin [14],67.3 nM
same,EC50,mouse serum albumin [15],4.2 nM
same,IC50,human PCSK9 [16],5.68 nM
same,Kd,rhesus serum albumin [24],65.4 nM
same,koff,rhesus serum albumin [24],0.000408 s⁻¹
same,kon,rhesus serum albumin [24],6240 M⁻¹ s⁻¹
same,Kd,human serum albumin [25],64.9 nM
same,koff,human serum albumin [25],0.000383 s⁻¹
same,kon,human serum albumin [25],5910 M⁻¹ s⁻¹
same,Kd,mouse serum albumin [26],26.1 nM
same,koff,mouse serum albumin [26],0.000362 s⁻¹
same,kon,mouse serum albumin [26],14100 M⁻¹ s⁻¹
same,IC50,human PCSK9 [17],7.67 nM
same,Kd,rhesus serum albumin [27],91.1 nM
same,koff,rhesus serum albumin [27],0.000788 s⁻¹
same,kon,rhesus serum albumin [27],8640 M⁻¹ s⁻¹
same,Kd,human serum albumin [28],35.2 nM
same,koff,human serum albumin [28],0.000478 s⁻¹
same,kon,human serum albumin [28],13600 M⁻¹ s⁻¹
same,Kd,mouse serum albumin [29],114 nM
same,koff,mouse serum albumin [29],0.00152 s⁻¹
same,kon,mouse serum albumin [29],13400 M⁻¹ s⁻¹
same,Kd,rhesus serum albumin [18],71.9 nM
same,koff,rhesus serum albumin [18],0.000415 s⁻¹
same,kon,rhesus serum albumin [18],5770 M⁻¹ s⁻¹
same,Kd,human serum albumin [19],68.4 nM
same,koff,human serum albumin [19],0.000362 s⁻¹
same,kon,human serum albumin [19],5300 M⁻¹ s⁻¹
same,Kd,mouse serum albumin [20],20 nM
same,koff,mouse serum albumin [20],0.0003 s⁻¹
same,kon,mouse serum albumin [20],15000 M⁻¹ s⁻¹
same,Kd,rhesus serum albumin [30],64.9 nM
same,koff,rhesus serum albumin [30],0.000332 s⁻¹
same,kon,rhesus serum albumin [30],5110 M⁻¹ s⁻¹
same,Kd,human serum albumin [31],61.4 nM
same,koff,human serum albumin [31],0.000292 s⁻¹
same,kon,human serum albumin [31],4760 M⁻¹ s⁻¹
same,Kd,mouse serum albumin [32],21.8 nM
same,koff,mouse serum albumin [32],0.00033 s⁻¹
same,kon,mouse serum albumin [32],15200 M⁻¹ s⁻¹
B10,IC50,human PCSK9 [5],1.8 nM
same,EC50,rhesus serum albumin [13],93.1 nM
same,EC50,human serum albumin [14],139 nM
same,EC50,mouse serum albumin [15],15.6 nM
same,IC50,human PCSK9 [16],6.51 nM
same,IC50,human PCSK9 [17],8.12 nM
B11,koff,rhesus serum albumin [1],0.000313 s⁻¹
same,koff,human serum albumin [2],0.000253 s⁻¹
same,koff,mouse serum albumin [3],0.000492 s⁻¹
same,koff,rat serum albumin,0.000902 s⁻¹
